Source: patent US20100222280A1 (PROYECTO DE BIOMEDICINA CIMA S L, published 2010)

Key:
[1] = target: TGF-β1 (Roche); experiment: cell-based or functional assay
[2] = target: biotinylated TGF-β1 (Homo sapiens (Human), UniProt P01137 279-390, Biotinylated (site or sites not stated) for capture on streptavidin plates. The active cytokine is a disulfide-linked 25 kDa homodimer; one subunit is given.); experiment: phage display biopanning on biotinylated TGF-β1 on streptavidin plates; clones among 108 colonies after 3 cycles
[3] = target: TGF-β1 raised in mice by acute liver damage (CCl4) (mouse, UniProt P04202 279-390, limits assumed); experiment: cell-based or functional assay
[4] = target: TGF-β1 (Roche); experiment: cell-based or functional assay; remark: listed apart in the source

Chain of biotinylated TGF-β1 (P01137 279-390 limits assumed, form in doubt): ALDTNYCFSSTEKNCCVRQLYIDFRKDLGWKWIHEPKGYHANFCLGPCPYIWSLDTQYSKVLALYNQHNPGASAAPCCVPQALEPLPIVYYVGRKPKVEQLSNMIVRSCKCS
Chain of TGF-β1 (Roche) (P01137 279-390): as the sequence (P01137 279-390 limits assumed, form in doubt) above
Chain of TGF-β1 raised in mice by acute liver damage (CCl4) (P04202 279-390 limits assumed): as the sequence (P01137 279-390 limits assumed, form in doubt) above, with A75S counted along it

Binder | % Inhibition (Mv-1-Lu cell line growth reestablishment, 3H-thymidine) [1] [%] | No. colonies [2] [colonies] | % Inhibition (type I collagen mRNA induction, acute liver damage model in mice) [3] [%] | % Inhibition (Mv-1-Lu cell line growth reestablishment) [4] [%]
VPMALNHGVYVMVSS (15-aa peptide) [peptide identified by SEQ ID NO: 22] | 4.13 | 1 |  | 
MPLSRYWWLFSHRPR (15-aa peptide) [peptide identified by SEQ ID NO: 18] | 21.3 | 1 |  | 
GWHSLLHSRYHRLAA (15-aa peptide) [peptide identified by SEQ ID NO: 9] | 4.98 | 1 | 26.6 | 
RIWFIPRSSWYER [truncated peptide SEQ ID NO: 25 (T2)] |  |  |  | 6.2
IWFIPRSSWYE [truncated peptide SEQ ID NO: 27 (T4)] |  |  |  | 1.4
DRRIFWWSLRSAPGA (15-aa peptide) [peptide identified by SEQ ID NO: 1] | 3.33 | 6 | 0.69 | 
DRRIFWWSNRSAPGA (15-aa peptide) [peptide identified by SEQ ID NO: 2] | -0.96 | 1 | 36.6 | 
WFIPRSSWYERA [truncated peptide SEQ ID NO: 29 (T6)] |  |  |  | 2.7
RHLSHFKWLRSHGLD (15-aa peptide) [peptide identified by SEQ ID NO: 19] | 9.71 | 1 | 12.1 | 
KRIWFIPRS [truncated peptide SEQ ID NO: 36 (T13)] |  |  |  | 6.2
KRIWFIPRSSWYERA (15-aa peptide) [TGF-β1 inhibitor peptide P17 (SEQ ID NO: 17)] | 38.9 | 3 | 93.1 | 28.5
RLAHSHRHRSHVALT (15-aa peptide) [peptide identified by SEQ ID NO: 4] | 5.53 | 18 | 51.3 | 
HVRLHHYLRHRSLPN (15-aa peptide) [peptide identified by SEQ ID NO: 21] | 13.4 | 1 |  | 
WFIPRSSWY [truncated peptide SEQ ID NO: 28 (T5)] |  |  |  | 3.1
WHKYFLRRPLSVRTR (15-aa peptide) [peptide identified by SEQ ID NO: 11] | 27.4 | 4 | 39.3 | 
WHKYFLRRPLSVGLG (15-aa peptide) [peptide identified by SEQ ID NO: 12] | 10.7 | 1 |  | 
SGRRHLHRHHIFSLP (15-aa peptide) [peptide identified by SEQ ID NO: 14] | 3.62 | 2 | 49.8 | 
KRIWFIPRSS [truncated peptide SEQ ID NO: 35 (T12)] |  |  |  | 6

Binder | % Inhibition (Mv-1-Lu cell line growth reestablishment, 3H-thymidine) [1] [%] | No. colonies [2] [colonies] | % Inhibition (type I collagen mRNA induction, acute liver damage model in mice) [3] [%] | % Inhibition (Mv-1-Lu cell line growth reestablishment) [4] [%]
KRIWFIPRSSWYER [truncated peptide SEQ ID NO: 33 (T10)] |  |  |  | 31.4
PPYHRFWRGHRHAVQ (15-aa peptide) [peptide identified by SEQ ID NO: 6] | 12.8 | 12 | 74.9 | 
RRFHFHSRMVAVDNS (15-aa peptide) [peptide identified by SEQ ID NO: 20] | 6.16 | 1 | 1.41 | 
FVWVRFHRLPRQIYT (15-aa peptide) [peptide identified by SEQ ID NO: 10] | -4.58 | 1 |  | 
RKWFLQHRRMPVSVL (15-aa peptide) [peptide identified by SEQ ID NO: 13] | 18 | 6 | 32.7 | 
FIPRSSWYERA [truncated peptide SEQ ID NO: 30 (T7)] |  |  |  | -0.3
HRISHFAHRYLARLH (15-aa peptide) [peptide identified by SEQ ID NO: 7] | -25 | 2 |  | 
KRIWFIPRSSWY [truncated peptide SEQ ID NO: 34 (T11)] |  |  |  | 34.4
PRSSWYERA [truncated peptide SEQ ID NO: 32 (T9)] |  |  |  | 3.8
TSLDASIIWAMMQN [peptide identified as P144 in the Spanish patent application ES 2146552 A1 (SEQ ID NO: 51)] | 7.26 |  | -3.51 | 
IPRSSWYERA [truncated peptide SEQ ID NO: 31 (T8)] |  |  |  | 3.4
GWITFHRRHHDRVLS (15-aa peptide) [peptide identified by SEQ ID NO: 15] | 13.4 | 1 | 14.3 | 
RIWFIPRSSWYERA [truncated peptide SEQ ID NO: 24 (T1)] |  |  |  | 9.4
RRWVRYPVHLHSPIV (15-aa peptide) [peptide identified by SEQ ID NO: 5] | 15.8 | 1 |  | 
RLHGHRSHRFTHVAQ (15-aa peptide) [peptide identified by SEQ ID NO: 16] | 9.47 | 1 |  | 
RFFTRFPWHYHASRL (15-aa peptide) [peptide identified by SEQ ID NO: 3] | 25.4 | 41 | 2.09 | 
WHWRHRIPLQLAAGR (15-aa peptide) [peptide identified by SEQ ID NO: 8] | 15.7 | 2 |  | 
IWFIPRSSWYERA [truncated peptide SEQ ID NO: 26 (T3)] |  |  |  | 4.5
